Reference: the RNAGym collection of RNA variant scans (doi:10.1073/pnas.2313332121)

B1: TPR t1 (parent)
chain: GACCAAUCUGCCCUCAGAGCUCGAGAACAUCUUCGGAUGCAGAGGAGGCAGGCUUCGGUGGCGCGAUAGCGCCAACGUCCUCAACCUCCAAUGCAUCCCACCACAUGAUGAUGCCUGAAGAGCCUUGGUUUUUUG

Variants of: B1
Experiment: polymerase ribozyme fitness, log enrichment relative to wild type (log ratio); higher = more active; in vitro selection for triplet polymerase activity
Method in brief: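 For each subunit of a heterodimeric triplet polymerase ribozyme, a mutant library was built by PCR and transcribed, then taken through a single in vitro selection round in triplicate. Selection involved annealing to a biotinylated primer, the partner subunit and triplets, incubation frozen at −7 °C, gel excision of extended constructs, capture on streptavidin beads and RT-PCR. Genotypes were retained after Illumina sequencing of inputs and outputs only with ≥10 input reads and ≥1 read in each output. Fitness is defined as the logarithm of a genotype's enrichment relative to wild-type enrichment, using inverse-variance-weighted averages across replicates, with the logarithm taken to base 2.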

In order of rising “polymerase ribozyme fitness (log ratio)” value:
1. GACCAAUCUGCCCUCAGAGCUCGAGAACAUCUUCGGAUGCAGAGGAGGCAGGCUUCGGUUGCGCGAUAGCGCCAACGUUCACAACCUCCAAUGCAUACCACCACAAGAUGAUGCCUGAAGAGCCUUGGUUUUUUG  -6.56
2. GACCAAUCUGCCCUCAGAGCUCGAGAACAUCUUCGGAUGCAAAGGAGACAGGCUUCGGUGGCGCGAUAACGCCAACGUCCUCAACCUCCAAUGCAUCCCACCACAUGAUGAUGCCUGAAGAGCCUUGGUUUUUUG  -6.28
3. GACCAAUCUGCCCUCAGAGCUCGAGAACAUCUUCGGAUGCAGAGGAGGCAGGCUUCGGUGGCGCGAUAGCGCCAACGUCCUCAACCUCCAACGCAUCCGACCACAUGAUGAUUCCUGAAGAGCCUUGGUUUUUUG  -6.05
4. GACCAAUCUGCCCUCAGAGCUCGAGAACAUCUUGGGAAGCAGAGGAGACAGGUUUCGGUGGCGCGAUAGCGCCAACGUCCUCAACCUCCAAUGCAUCCCACCACAUGAUGUUGCCUGAAGAGCCUUGGUUUUUUG  -6
5. GUCCCAUCUGCCCUCAGAGCUCGAGAACAUCUUCGGAUGCAGAGGAGGCAGGCUUCGGUGGAGCGAUAGCGCCAACGUCCUCAACCUCCAAUCCAUCCCACCACAUGAUGAUGCCUGAAGAGCCUUGGUUUUUUG  -5.08
6. GACCAAUCUGCCCUCACAGCUCGAGAACAUCUUCGGAUGCAGAGGAGGCAGGCUUCGGUGGCGCGAUAGCGCCAACGUCCUCAACCUCCACUGCAUCCCACCACAUGAUGAUGCCUGAAGAGCCUUGGUUUUUUG  -4.65
7. GACCAAUGUGGCCUCAGAGCUCGAGAACAUCUUCGGAUGCAGAGGAGGCAGGUUUCGGUGGUGCGAUAGCGCCAACGUCCGCAACCUCCAAUGCAUCCCACAACAUGAUGAUGCCUGAAGAGCCUUGGUUUUUUG  -4.4
8. GACCAAUCUGCCCUCAGAGCUCGAGAGCAUCUUCGGAUGCAGAGGAGGCAGGCUUCGGUGGUGCGAUAGCGCCAACGUCCUCAACCUCCAAUGAAUCCCACCACACGAUGAUGCCUGAAGAGCCUUGGUUUUUUG  -4.15
9. GACCAAUCUGCCCUCAGAGCUGGAGAACAUCUUCGGAUGCAGAGGAGGCAGGCUUCGGUGACGCGAUAGCGCCAACGUCCUCAACCUCCAAUACAUCCCACCACAUGAUGAUGCCUGAAGAGCCUUGGUUUUUUG  -3.75
10. GACCAAUCUGCCCUCAGAGCUCGAGAACAUCUUCGGAGGCAUAGGAGGCAGGCUUCGGUGUCGCGAUAGCGCUAACGUCCUCAACCUCCAAUGCAUCCCACCACAUGAUGAUGCUUGAAGAGCCUUGGUUUUUUG  -3.73
11. GACCAAUCCGCCCUCAGAGCUCGAGAACAUCUUCGGAGGCAGAGGAGGCAGGCUUCGGUGCCGCGAUAGCGCCAACGUCCUCAACCUCCAAUGCAUCCCAACACAUGAUGAUGCCUGAAGAGCCUUGGUUUUUUG  -3.61
12. GACCAAUCUGCCCUCAGAGCUCGAGAACAUCUUCGGAUGUAGAGGAUGCAGGUUUCGGUGGCGCGAUAGCGCCAACGUCCUCAACCUCCAAUGCAUCCCACCACAUGAUGAUGCCUGAAGAGCCUUGGUUUUUUG  -3.37
13. GGCCAAUCUGCCCUCAGAGCUCGAGAAUAUCUUCGGAUGCAGAGGAGGCAGGCUUCGGUGGCGCGAUAGUGCCAACGUCCUCAACCUCCAAUGCAUCCCACCACAUGAUUAUGCCUGAAGAGCCUUGGUUUUUUG  -3.19
14. GACCAAUCUGCCCUCAGAGCUCGAGAACAUCUUCGGAUGCAGAGGAGGCAGGCUUCGGUGGCGCGAUAGCGCUAACGUCCUCAAGCUCCAAUGCAUCCCACCACAUGAUGAUGCCUGAAGAGCCUUGGUUUUUUG  -2.85
15. GACCAAUCUGCCCUCAGAGCUCGAGAACAUCUUCGGAUGCAGAGGAGGCAGGCUUCGGUGGCGCGAUAGCGCCAACGUCCUCAACCUCCAAAGCAUCCCACCACAUGAUGAUGCCUGAAGAGCCUUGGUUUUUUG  -2.8
16. GACCAAUCUGCCCUCAGAGCUCGAGAACAUCUUCGGAUGCAGAGGAGGCAGGCUUCGGUGGAGCGAUAGCGCCCACGUCCUCAACCUCCAAUGCAUCCCACCACAUGAUGAUGCCUGAAGAGCCUUGGUUUUUUG  -2.68
17. GACCAAUCUGGCCUCAGAACUCGAGAACAUCUUCGGAGGCAGAGGAGGCAGGCUUCGGUGGCGCGAUAGCGCCAACGUCCUCAACCUCCAAUGCAUCCCACCACAUGAUGAUGCCUGAAGAGCCUUGGUUUUUUG  -2.63
18. GACCAAUCUGCCCUCAGAGCUCGAGAAGAUCUUCGGAUGCAGAGGAGGCAGGCUUCGGUGGCGCGAUAGCGCCAACGCCCUCAACCUCCAAUGCAUCCCACCACAUGAUGAUGCCUGAAGAGCCUUGGUUUUUUG  -2.53
19. GACCAAUCUGCCCUCAGAGCUCGAGAACAUCUUCGGAUGCAGAGGAGGAAGGCUUCGGUGGCGCGAUAGCGCCAACGUCCUCAACCUCCAAUGCAUCCCAGCACAUGAUGAUGCCUGAAGAGCCUUGGUUUUUUG  -2.23
20. GACCAAUCUGCCCUCAGAGCUCGAGAACAUCUUCGGAUGCAGAGGAGGCAGGCUUCGGUGGCGCGAUAGCGCCAACGUCCUCAACCUCCAAUGCAUCCCACCACAUGAUGAUGCCUUAAGAGCCUUGGUUUUUUG  -2.21
21. GAACAAUCUGCCCUCAGAGCUCGAGAACAUCUUCGGAUGGAGAGGAGGCAGGCUUCGGUGGCGCGAUAGCGCCAACGUCCUCAACCUCCAAUGCAUCCCACCACAUGAUGAUGCCUGAAGAGCCUUGGUUUUUUG  -2.2
22. GACCAAUCUGCCCUCAGAGCUCGAGAACAUCUUCGGAUGCAGAGGAGGCAGGCUUCGGUGGCGCGAUAGCGCCAACAUCCUCAACCUCCAAUGCAUCCCACCACAUGAUGAUGCCUGAAAAGCCUUGCUUUUUUG  -2.08
23. GACCAAUCUGCCCUCAGAGCUCGAGAACAUCUUCGGAUGCAGAGGAGGCAGGCUUCGGUGGCACGAUAGCGCCAACGUCCUCAAACUCCAAUGCAUCCCACCACAUGAUGAUGCCUGAAGAGCCUUGGUUUUUUG  -2.01
24. GACCAAUCUCCCCUCAGAGCUCGAGAACAUCUUCGGAGGCACAGGAGGCAGGCUUCGGUGGCGCGAUAGCGCCAACGUCCUCAACCUCCAAUGCAUCCCACCACAUGAUGAUGCCUGAAGUGCCUUGGUUUUUUG  -1.8
25. GACCAAUCUGCCCUCAGAGCUCGAGAACAUCUUCGGAUGCAGAGGAGGCAGGCUUCGGUGGCGCGAUAGCGCCAACGUCCUCAAGAUCCAAUGCAUCCCACCACAUGAUGAUGCCUGAAGAGCCUUGGUUUUUUG  -1.69
26. GACUAAUCUGCCCUCAGAGCUCGAGAACAUCUUCGGAUGCCGAGGAGGCAGGCUUCGGUGGCGCGAUAGCGCCAACGUCCUCAACCUCCAAUGCAUCCCACCACAUGAUGAUGCCUGAAGAGCCUUGGUUUUUUG  -1.67
27. GACCAAUCUGCCCUCAGAGCUCGAGAACAUCUUCGGAUGCAGAGGAGGCAGGCUUCGGUGGCGCGAUAGCGCCAACGUUCUCAACCUCCAAUGCAUCCCACCACAUGAUGAUACCUGAAGAGCCUUGGUUUUUUG  -1.38
28. GACCAAUCUGCCCUCAGAGCUCGAGAACAUCUUCGGAUGCAGAGGAGGCAGGCUUCGGUGGCGCGAUAGCGCCAACGUCCUCAACAUCCAAUGCAUCCCACCACAUGAUAAUGCCUGAAGAGGCUUGGUUUUUUG  -1.37
29. GACCAAUCUGCCCUCAGAGCUCGAGAACAUCUUCGGAUGCAGAGGAGGCAGGCUUCGGUGGCGCGAUAGCGCCAACGUCCUCAACAUCCAAUGCAUCCCACCACAUGAUGAUGCCUGAAGAGCCUUGGUUUUUUU  -1.3
30. GACCAAUCUGCCCUCAGAGCUCGAGAACAUCUUCGGAUGCAGAGGAGGCAGGCUUCGGUGGCGCGAUAGCGCCAACGUCCUCAACCUCCAAUGCAUCCCACCACAUGAUGAUGCCUGAAUAGCCUUGGGUUUUUG  -1.17
31. GACGAAGCUGCCUUCAGAGCUCGAGAACAUCUUCGGAUGCAGAGGAGGCAGGCUUCGGUGGCGCGAUAGCGCCAACGUCCUCAACCUCCAAUGCAUCCCACCACAUGAUGAUACCUGAAGAGCCUUGGUUUUUUG  -1.14
32. GACCAAUCUGCCCUCAGAGCUCGAGAACAUCUUCGGAUGCAGAGGAGGCAGGCUUCGGUGGCGCGAUAGCGCGAACGUCCUCAACCUCCAAUGCAUCCCACCACAUGAUGAUGCAUGAAGAGCCUUGGUUUUUUG  -1.04
33. GACCAAUCUGCCCUCAGAGCUCGAGAACAUCUUCGGAUGCAGAGGAGGCAGGCUUCGGUGGCGCGAUAGCGCCAAGGUCCUUAACCUCCAAUGCAUCCCACCACAUGAUGAUGCCUGAAGAGCCUUGGUUUUUUG  -0.815
34. GACCAAUCUGCCCUCAGAGCUCGAGAACAUCUUCGGAUACAGAGGAGGCAGGCUUCGGUGGCGCGAUAGCGCCAACGUCCACAACCUUCAAUGCAUCCCACCACAUGAUGAUGCCUGAAGAGCCUUGGUUUUUUG  -0.679
35. GACUAAUCUGCCCUCAGAGCUCGAGAACAUCUUCGGAUGCAGAGGAGGCAGGCUUAGGUGGCGCGAUAGCGCCAACGUCCUCAACCUCCAAUGCAUCCCACCACAUGAUGAUGCCUGAAGAGCCUUGGUUUUUUG  -0.607
36. GACCAAUCUGCCCUCAGAGCUCGAGAACAUCUUCGGAUGCAGAGGAGGCAGGCUUCGGUGGCGCGAUAUCGCCAACGUCCUCAACCUCCAAUGCAUCCCACCACCUGAUGAUGCCUGAAGAGCCUUGGUUUUUUG  -0.532
37. GACCAAUCUGCCCUCAGAGCUCGAGAACAUCUUCGGAUGCAGAGGAGGCAGGCUUCGAUGGCGCGAUAGCGCCAACGUCCUUAACCUCCAAUGCAUCCCACCACAUGAUGAUGCAUGAAGAGCUUUGGUUUUUUG  -0.385
38. GACCUAUCUGGCCUCAGAGCUCGAGAACAUCUUCGGAUGCAGAGGAGGCAGGCUUUGGUGGCGCGAUAGCGCCAACGUCCUCAACCUCCAAUGCAUCCCACCACAUGAUGAUGCCUGAAGAGCCUUGGUUUUUUG  -0.378
39. GACCAAUGUGCCCUCAGAGCUCGAGAACAUCUUCGGAUGCAGAGGAGGCAGGCUUCGGUGGCGCGAUAGCACCAACGUCCUCAACCUCCAAUGCAUCCCACCACAUGAUGAUGCCUGAAGAGCCUUGGUUUUUUG  0.0703
40. GACCAAUCUGCCCUCAGAGCUCGAGAACAUCUUCGGAUGCAGAGGAGGCAGGCUUCCGUGGCGCGAUAGCGCCAACGUCCUCAACCUCCAAUGCAUCCCUCCACAUGAUGACGCCUGAAGAGCCCUGGUUUUUUG  0.722
41. GACCAAUCUGCGCUCAGAGCUCGAGAACAUCUUCGGAUGCAGAGGAGGCAGGCUUCGGUGGCGCGAUAGCGCCAACGACCUCAACCUCCAAUACAUCCCACCACAUGAUGAUGCCUGAAGAGCGUUGGUUUUUUG  0.89
42. GACCAAUCCGCCCUCAGAGCUCGAGAACAUCUUCGGAUGCAGAGGAGGCAGGCUUCGGUGGCGCGAUAGCGCCAACGUCCUCAACCUCCAAUGCAUCCCACCACAUGAUGAUGCCUAAAGAGCCUUGGUUUUUUG  0.892
